According to patent US20140127225A1 (NEOTOPE BIOSCIENCES, published 2014):
Positions count from the first letter of the chain named.

Assays:
[1] = target: T1, human iC3b (purified; Complement Technology #A115) (human, UniProt P01024 23-667); assay: direct ELISA, plate coated with 10 ug/ml iC3b, goat anti-human-HRP, ABTS, OD405
T1 construct: range 23-667; Bought purified protein; chains held together by disulfide bonds; also called purified human iC3b
Procedure: Costar RIA/EIA (Costar #3590) plate was coated with 100 ul/well of 10 ug/ml iC3b (Complement Technologies) at 4 degree overnight. At day 2, the plate was washed 5 times with washing buffer (TPBS+0.05% Tween 20) and blocked with 100 ul blocking buffer (PBS containing 1.5% BSA) per well for 1 hour at room temperature. Then the plate was washed 5 times with washing buffer and incubated with 100 ul per well of testing antibodies as indicated in the figure. After 1 hour of incubation at room temperature, the plate was washed again for 5 times with washing buffer and incubated with 1:4000 diluted Goat anti human-HRP (Jackson Immunoresearch, Code 109-036-098, lot 99937) in 100 ul blocking buffer per well.

[2] = target: T1, human iC3b (purified; Complement …); assay: Biacore; antibody captured on anti-mouse CM5 chip, four concentrations of antigen
Procedure: (§1) A preliminary Biacore assay was done with four concentrations of either iC3b or one of the two potential cross-reactive complement species (e.g., C3b or C3) to assess relative cross-reactivity. Unlike ELISA, a two-fold difference in KD is not sufficient to establish specificity in the Biacore assay. An anti-mouse CM5 chip was prepared following manufacture protocol. Three antibodies (including 6G1) were captured at levels such that Rmax would fall between 25 and 50 RU. Four concentrations of either iC3b or cross-reacting protein were used. Both were from Complement Technologies as described above.

[3] = target: T1, human iC3b (purified; Complement …); assay: sandwich ELISA; antigen captured by chicken anti-C3; reference C3 or C3b
From the text: For secondary screening, C3, C3b and iC3b were used for testing cross-reactivity. The plate was coated with chicken anti-C3 antibody (LeeBio #CC3-80A) as the capture antibody. For primary screening, only iC3b was used for antigen capture. For antibody characterization, all C3 proteins (C3 (Complement Technology #A113); C3b (Complement Technology #A114); and iC3b (Complement Technology #A115)) were used for antigen capture. Supernatants from cells, control antibody, mouse anti-human iC3b (the A209 antibody (Quidel)), were used as detecting antibodies, respectively. Goat anti-mouse-HRP (Jackson ImmunoResearch #115-035-164) was used as the secondary Antibody. 1-Step ABTS (Thermo #37615) was used as the substrate.
The sandwich ELISA was performed for the two mice in Example 3. First, cell supernatants were only tested for binding to iC3b. C3, C3b, and iC3b were used in the secondary screening for testing cross-reactivity.

[4] = target: T1, human iC3b (purified; Complement …); assay: Biacore; reference C3
Procedure: as §1

[5] = target: T2, human C3 (purified; Complement Technology #A113) (human, UniProt P01024 23-667; P01024 672-1663); assay: Biacore; antibody captured on anti-mouse CM5 chip, four concentrations of antigen; Biacore; 6G1 captured on chip, C3 in solution: weak binding, >10x weaker than iC3b
T2 construct: range 23-667;range 672-1663; Bought purified protein
T2 sequence (P01024 23-667 limits assumed, form in doubt, chain 1 of 2): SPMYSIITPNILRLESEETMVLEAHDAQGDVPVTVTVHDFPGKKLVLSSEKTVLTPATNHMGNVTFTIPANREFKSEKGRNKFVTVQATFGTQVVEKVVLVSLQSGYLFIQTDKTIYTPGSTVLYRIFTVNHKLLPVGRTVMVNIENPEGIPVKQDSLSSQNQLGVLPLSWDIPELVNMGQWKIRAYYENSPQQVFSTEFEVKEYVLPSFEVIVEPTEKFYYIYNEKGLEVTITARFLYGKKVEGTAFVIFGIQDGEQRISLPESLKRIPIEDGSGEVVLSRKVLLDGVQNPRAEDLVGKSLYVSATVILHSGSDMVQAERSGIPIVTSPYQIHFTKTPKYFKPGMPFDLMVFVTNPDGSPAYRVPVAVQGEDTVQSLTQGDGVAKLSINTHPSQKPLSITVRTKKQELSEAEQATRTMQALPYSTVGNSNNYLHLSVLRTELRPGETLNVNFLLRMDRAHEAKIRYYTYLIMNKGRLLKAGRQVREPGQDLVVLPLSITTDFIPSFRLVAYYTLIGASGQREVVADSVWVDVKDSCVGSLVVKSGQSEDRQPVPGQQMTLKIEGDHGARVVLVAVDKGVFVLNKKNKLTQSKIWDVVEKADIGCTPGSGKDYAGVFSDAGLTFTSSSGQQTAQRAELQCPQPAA
T2 sequence (P01024 672-1663 limits assumed, form in doubt, chain 2 of 2): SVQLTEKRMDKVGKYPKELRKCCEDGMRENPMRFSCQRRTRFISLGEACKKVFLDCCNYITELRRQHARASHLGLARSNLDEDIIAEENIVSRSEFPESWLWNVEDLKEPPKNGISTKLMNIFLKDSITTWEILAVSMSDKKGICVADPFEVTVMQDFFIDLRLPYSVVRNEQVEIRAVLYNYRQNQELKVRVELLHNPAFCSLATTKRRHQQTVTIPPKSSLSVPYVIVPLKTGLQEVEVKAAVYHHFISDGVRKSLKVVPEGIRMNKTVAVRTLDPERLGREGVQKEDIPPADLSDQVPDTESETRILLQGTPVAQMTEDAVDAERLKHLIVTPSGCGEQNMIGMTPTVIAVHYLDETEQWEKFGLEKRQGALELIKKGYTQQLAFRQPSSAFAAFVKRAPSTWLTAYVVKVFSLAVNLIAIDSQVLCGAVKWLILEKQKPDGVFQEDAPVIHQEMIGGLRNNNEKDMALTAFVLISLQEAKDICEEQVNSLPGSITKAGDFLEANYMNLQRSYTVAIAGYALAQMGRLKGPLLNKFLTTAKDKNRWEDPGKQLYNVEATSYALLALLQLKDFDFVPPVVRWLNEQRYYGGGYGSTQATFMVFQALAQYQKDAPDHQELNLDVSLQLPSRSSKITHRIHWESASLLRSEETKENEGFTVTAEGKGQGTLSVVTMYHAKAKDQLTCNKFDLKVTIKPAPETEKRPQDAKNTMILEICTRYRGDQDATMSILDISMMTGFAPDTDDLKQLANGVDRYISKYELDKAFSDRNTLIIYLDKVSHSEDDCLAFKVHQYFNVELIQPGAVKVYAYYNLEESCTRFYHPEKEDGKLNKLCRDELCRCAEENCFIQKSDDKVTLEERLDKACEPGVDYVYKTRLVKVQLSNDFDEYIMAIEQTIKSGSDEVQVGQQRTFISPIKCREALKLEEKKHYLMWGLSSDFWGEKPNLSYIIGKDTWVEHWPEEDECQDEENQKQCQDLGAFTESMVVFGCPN

[6] = target: T2, human C3 (purified; Complement …); assay: Biacore; antibody captured on anti-mouse CM5 chip, four concentrations of antigen; Biacore; 6G1 captured on chip, C3 in solution: weak binding
[7] = target: T1, human iC3b (purified; Complement …); assay: Biacore; reference C3b
[8] = target: T1, human iC3b (purified; Complement …); assay: sandwich ELISA; reference C3b
[9] = target: T1, human iC3b (purified; Complement …); assay: assay not described

T1 sequence (P01024 23-667 limits assumed, chain 1 of 3): as the sequence (P01024 23-667 limits assumed, form in doubt, chain 1 of 2) above
T1 sequence (P01024 749-1303 limits assumed, chain 2 of 3): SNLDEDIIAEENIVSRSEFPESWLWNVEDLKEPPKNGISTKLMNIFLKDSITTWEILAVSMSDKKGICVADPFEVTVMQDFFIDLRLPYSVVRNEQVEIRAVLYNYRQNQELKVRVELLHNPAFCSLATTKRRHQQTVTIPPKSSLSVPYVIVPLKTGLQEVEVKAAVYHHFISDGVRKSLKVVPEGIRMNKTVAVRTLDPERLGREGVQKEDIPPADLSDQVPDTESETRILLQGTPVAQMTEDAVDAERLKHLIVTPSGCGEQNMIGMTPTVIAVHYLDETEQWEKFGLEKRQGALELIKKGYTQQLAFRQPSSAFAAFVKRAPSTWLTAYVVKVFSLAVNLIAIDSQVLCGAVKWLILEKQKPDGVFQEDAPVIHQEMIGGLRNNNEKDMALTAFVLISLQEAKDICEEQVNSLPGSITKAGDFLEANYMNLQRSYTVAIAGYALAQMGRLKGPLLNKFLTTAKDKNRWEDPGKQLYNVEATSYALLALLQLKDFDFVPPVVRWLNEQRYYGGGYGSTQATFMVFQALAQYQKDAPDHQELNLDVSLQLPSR
T1 sequence (P01024 1321-1663 limits assumed, chain 3 of 3): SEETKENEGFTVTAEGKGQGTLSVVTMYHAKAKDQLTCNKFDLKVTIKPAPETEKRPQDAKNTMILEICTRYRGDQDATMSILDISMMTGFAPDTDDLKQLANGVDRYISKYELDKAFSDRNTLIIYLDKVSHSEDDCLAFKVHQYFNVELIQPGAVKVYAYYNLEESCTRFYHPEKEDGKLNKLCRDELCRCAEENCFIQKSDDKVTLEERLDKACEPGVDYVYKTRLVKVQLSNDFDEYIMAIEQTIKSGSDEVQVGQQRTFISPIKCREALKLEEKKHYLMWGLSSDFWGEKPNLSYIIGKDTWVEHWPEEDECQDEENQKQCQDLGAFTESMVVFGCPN

B1: chimeric 6G1 (antibody, V domains shown)
VH: QIQLVQSGPELKKPGETVKISCKASGYTFTNYGMNWVKQAPGKDLKWMGWINTYTGEPRYADEFKGRFAFSLETSASTAYLQINNLKNEDMATYFCAKGGYPHYYSMDYWGQGTSVTVSS
VL: DIQMTQSTSSLSASLGDRVTISCRASQDINNYLNWYQQKPDGTIKLLIYYTSKLHSGVPSRFSGSGSGRDYSLTISNLEQEDIATYFCQQGNTLPRTFGGGTKLEIKR
notes: also called chi-6G1
B1 was tested, and the “EC50 (read off the curve)” value [1] was ~0.08 µg/mL.

B2: mouse monoclonal antibody 6G1 (antibody, V domains shown)
VH: B1 VH
VL: B1 VL
notes: Mouse hybridoma antibody; also called m6G1
B2 was tested, and the Kd [2] was 43.3 nM, the kon [2] was 98000 M⁻¹ s⁻¹ and the “fold specificity for iC3b vs. C3 or C3b” value [3] was > 2 fold. For the same binder, the “fold difference in KD, iC3b relative to C3” value [4] was > 10 fold, the Kd [5] was 2100 nM and the koff [6] was 0.028 s⁻¹. For the same binder, the kon [6] was 13000 M⁻¹ s⁻¹ and the “fold higher affinity constant for iC3b than C3b” value (“fold higher affinity constant” for short) [7] was ≥ 10 fold.

B3: mouse monoclonal antibody 2H8r (antibody, V domains shown)
VH: B1 VH with D44G, R59T, E63D
VL: B1 VL with S7T, N30S, I44V, K53R, R69T, N92K
notes: also called m2H8r
With B3 the “fold higher affinity constant” value [8] was ≥ 2 fold and the “fold higher affinity constant” value [7] was ≥ 10 fold.

B4: mouse monoclonal antibody 5D2 (antibody, IgG1, V domains shown)
VH: EVQLQQSGPELVKPGASVKISCKASGYTFTDNYYMNWVKQSHGKSLEWIGHIYPNNGVTSYNQKFRGKATLTVDKSSNSAYMELRSLTSEDSALYYCARNKLLSLYWYFDVWGTGTSVTVSS
VL: DIQMTQSSSSFSVFLGDRITITCRASVDIYNRLAWFQQKPGNAPRLLISGATSLATGVPSRFSGSGSGKDYTLSITSLQTEDVTIYYCQQYWSTPWTFGGGTKLEIKR
notes: also called m5D2
In the case of B4, the “fold specificity for iC3b vs. C3 or C3b” value [3] is reported as > 2 fold and the “fold higher affinity constant” value [7] is reported as ≥ 10 fold.

B5: humanized 6G1 version H3L3 (antibody, V domains shown)
VH: QVQLVQSGSELKKPGASVKVSCKASGYTFTNYGMNWVKQAPGQDLKWMGWINTYTGEPRYADEFKGRFVFSLDTSVSTAYLQISSLKAEDTATYYCARGGYPHYYSMDYWGQGTTVTVSS
VL: DIQMTQSPSSLSASVGDRVTITCRASQDINNYLNWYQQKPGKTPKLLIYYTSKLHSGVPSRFSGSGSGRDYILTISSLQPEDIATYYCQQGNTLPRTFGGGTKVEIKR
notes: Only variable regions are tied to it; also called Hu6G1 H3L3
In the case of B5, the “EC50 (read off the curve)” value [1] is reported as ~0.08 µg/mL.

B6: huH1L5 (antibody, V domains shown)
VH: B5 VH with K38R, D44G
VL: B5 VL with Y87F
notes: also called humanized 6G1 version H1L5
B6: binds [1].

B7: humanized 6G1 version H1L2 (antibody, V domains shown)
VH: B5 VH with K38R, D44G
VL: B5 VL with L73F
notes: H1 = 6G1 Hu v1 heavy, L2 = 6G1 Hu v2 light
For B7, the “EC50 (read off the curve)” value [1] was ~0.1 µg/mL.

B8: humanized 6G1 version H3L5 (antibody, V domains shown)
VH: B5 VH
VL: B5 VL with Y87F
notes: H3 = 6G1 Hu v3 heavy, L5 = 6G1 Hu v5 light
B8: binds [1].

B9: humanized 5D2 version H1L1 (antibody, V domains shown)
VH: EVQLQQSGAEVKKPGASVKVSCKASGYTFTDNYYMNWVRQAPGQSLEWMGHIYPNNGVTSYNQKFRGRVTLTRDKSINTAYMELSSLTSEDTALYYCARNKLLSLYWYFDVWGQGTLVTVSS
VL: DIQMTQSPSSLSASVGDRVTITCRASVDIYNRLAWFQQKPGKAPKLLISGATSLATGVPSRFSGSGSGKDYTLTISSLQPEDFATYYCQQYWSTPWTFGGGTKLEIKR
notes: also called 5D2 H1L1
B9: binds [9].

B10: humanized 5D2 version H2L1 (antibody, V domains shown)
VH: B9 VH with L71I, L94V
VL: B9 VL
notes: also called 5D2 H2L1
B10: binds [9].
